Reference: the supplement of paper PMC9942255
“And” between values parts separate entries of the source, which are not always exact repeats. Identical values can stand only once.

Test system: Bacillus subtilis DB104 (SP-AmyQ fusion secretion)
Assay: AmyQ secretion efficiency, weighted average sort bin (1 = best secretion, 10 = worst) (bin number (weighted average, 1-10)); higher = lower secretion efficiency
Outline: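 The secretion score was taken as the read-frequency-weighted mean bin number, normalised to beads per bin, with low-abundance sequences excluded. Bins came from large-particle flow cytometry sorting of occupied alginate beads (~65 nL, about 0.3 cells each, with fluorescein-starch) into 10 equally populated groups by green/red fluorescence ratio after about 13 h at room temperature and nile red staining. The cells were a B. subtilis DB104 library with mature AmyQ fused to designed signal peptides, integrated at amyE, and each bin's amplicons were Illumina-sequenced.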

Row | Sequence | AmyQ secretion efficiency
1 | MKLWMRKTLVVLFTIVTFGLVSPPAAIMADKP | 1.63
2 | MKLWMRKTLVVLFTIVTFGLVSPPAAKMADKP | 3.22
3 | MKLWMRKTLVVLFTIVTFGLVSPPAALMAATP | 2.71
4 | MKLWMRKTLVVLFTIVTFGLVSPPAALMCDKP | 2.74
5 | MKLWMRKTLVVLFTIVTFGLVSPPAALMFDKP | 3.85
6 | MKLWMRKTLVVLFTIVTFGLVSPPAALMGDKP | 4.12
7 | MKLWMRKTLVVLFTIVTFGLVSPPAALMIDKP | 2.83
8 | MKLWMRKTLVVLFTIVTFGLVSPPAALMMDKP | 2.97
9 | MKLWMRKTLVVLFTIVTFGLVSPPAALMQDKP | 2.54
10 | MKLWMRKTLVVLFTIVTFGLVSPPAALMSDKP | 3.94
11 | MKLWMRKTLVVLFTIVTFGLVSPPAALMTDKP | 2.85
12 | MKLWMRKTLVVLFTIVTFGLVSPPAALMVDKP | 2.11
13 | MKLWMRKTLVVLFTIVTFGLVSPPAALMYDKP | 3.73
14 | MKLWMRKTLVVLFTIVTFGLVSPPAAMMADKP | 1.82
15 | MKLWMRKTLVVLFTIVTFGLVSPPAAQMADKP | 1.81
16 | MKLWMRKTLVVLFTIVTFGLVSPPAARMADKP | 2.4
17 | MKLWMRKTLVVLFTIVTFGLVSPPAASMADKP | 1.85
18 | MKLWMRKTLVVLFTIVTFGLVSPPAATMADKP | 2.68
19 | MKLWMRKTLVVLFTIVTFGLVSPPAAVMADKP | 2.79
20 | MKLWMRKTLVVLFTIVTFGLVSPPALMADKP | 1.9
21 | MKLWMRKTLVVLFTIVTFGLVVPPAALMADKP | 2.83

Row | Sequence | AmyQ secretion efficiency
22 | MKLWMRKTQKGLFTIVTFGLVSPPAALMADKP | 5.07
23 | MKMKSGMEQAVSVLLLLSRLPASLTSE | 3.77
24 | MKMKSGMEQAVSVLLLLSRLPVQASFTSE | 7.78
25 | MKMKSGMEQAVSVLLLLSRLPVQASITSE | 7.01
26 | MKMKSGMEQAVSVLLLLSRLPVQASLRRK | 7.08
27 | MKMKSGMEQAVSVLLLLSRLPVQASLTRK | 7.01
28 | MKMKSGMEQAVSVLLLLSRLPVQASLTSD | 6.62
29 | MKMKSGMEQAVSVLLLLSRLPVQASLTSE | 7.57 and 7.03
30 | MKMKSGMEQAVSVLLLLSRLPVQASLTSH | 7.82
31 | MKMKSGMEQAVSVLLLLSRLPVQASLTSR | 6.52
32 | MKMKSGMEQAVSVLLLLSRLPVQASNTSE | 5.73
33 | MKMKSGMEQAVSVLLLLSRLPVQYSLTSE | 5.01
34 | MKNGGCKLVVSVTLFFSFLTIGPLAHAQNS | 3.26
35 | MKNLTKTSLLLAGLCTAAQMVFVTHASAEES | 3.46
36 | MKNMSCKGVVSVTLFFSFLTIGPLAHAQNS | 1.49
37 | MKNMSCKLKKSVTLFFSFLTIGPLAHAQNS | 3.34
38 | MKNMSCKLRKKKTLFFSFLTIGPLAHAQNS | 6.98
39 | MKNMSCKLRRRRKRFFSFLTIGPLAHAQNS | 7.37
40 | MKNMSCKLVVSVTLFFSFLDEDPLAHAQNS | 2.75
41 | MKNMSCKLVVSVTLFFSFLDSTPGAHAQNS | 1.96
42 | MKNMSCKLVVSVTLFFSFLFTIGPLAHAQNS | 1.19

Row | Sequence | AmyQ secretion efficiency
43 | MKNMSCKLVVSVTLFFSFLGGGPLAHAQNS | 1.53
44 | MKNMSCKLVVSVTLFFSFLGIFVLAHAQNS | 4.32
45 | MKNMSCKLVVSVTLFFSFLKRRPLAHAQNS | 8.2
46 | MKNMSCKLVVSVTLFFSFLRKKKKKAHAQNS | 6.96
47 | MKNMSCKLVVSVTLFFSFLTAHAQNS | 6.96
48 | MKNMSCKLVVSVTLFFSFLTIGPLAHADDE | 3.5
49 | MKNMSCKLVVSVTLFFSFLTIGPLAHAKRK | 2.49
50 | MKNMSCKLVVSVTLFFSFLTIGPLAHAQED | 2.36
51 | MKNMSCKLVVSVTLFFSFLTIGPLAHAQKR | 1.94
52 | MKNMSCKLVVSVTLFFSFLTIGPLAHAQND | 1.22
53 | MKNMSCKLVVSVTLFFSFLTIGPLAHAQNR | 1.47
54 | MKNMSCKLVVSVTLFFSFLTIGPLAHCQNS | 1.91
55 | MKNMSCKLVVSVTLFFSFLTIGPLAHDQNS | 6.5
56 | MKNMSCKLVVSVTLFFSFLTIGPLAHEQNS | 5.71
57 | MKNMSCKLVVSVTLFFSFLTIGPLAHFQNS | 5.82
58 | MKNMSCKLVVSVTLFFSFLTIGPLAHGQNS | 2
59 | MKNMSCKLVVSVTLFFSFLTIGPLAHLQNS | 6
60 | MKNMSCKLVVSVTLFFSFLTIGPLAHNQNS | 5.52
61 | MKNMSCKLVVSVTLFFSFLTIGPLAHPQNS | 5.55
62 | MKNMSCKLVVSVTLFFSFLTIGPLAHQQNS | 5.78
63 | MKNMSCKLVVSVTLFFSFLTIGPLAHRQNS | 6.88
